In patent publication US20120196804A1:
Like-named read-outs stand apart in the source and are kept apart here.

Assays:
Test in all cases: cell-based or functional assay
[1] = biological target: GLP-1 receptor
[2] = biological target: glucagon receptor
[3] = biological target: GLP-1 receptor; remark: listed apart in the source

cAMP Induction, EC50 (luciferase reporter, HEK293) [1]: 0.05 nM
cAMP Induction, EC50 (luciferase reporter, HEK293) [2]: > 1000 nM
cAMP Induction, EC50 (luciferase reporter, HEK293) [3]: 0.04 nM
Substance: GLP-1 (peptide)
